Experimental data published in US20240117018A1.

Key:
Assay in all cases: cell-based or functional assay
[1] = target: HIV-1 Env of pseudovirus 1054_07_TC4_1499 (HIV-1)
[2] = target: HIV-1 Env of pseudovirus 1394C9G1(Rev-) (HIV-1)
[3] = target: HIV-1 Env of pseudovirus 191084 B7-19 (HIV-1)
[4] = target: HIV-1 Env of pseudovirus 246F C1G (HIV-1)
[5] = target: HIV-1 Env of pseudovirus 3103.v3.c10 (HIV-1)
[6] = target: HIV-1 Env of pseudovirus 3301.v1.c24 (HIV-1)
[7] = target: HIV-1 Env of pseudovirus 620345.c01 (HIV-1)
[8] = target: HIV-1 Env of pseudovirus 6480.v4.c25 (HIV-1)
[9] = target: HIV-1 Env of pseudovirus 6535.3 (HIV-1)
[10] = target: HIV-1 Env of pseudovirus 928-28 (HIV-1)
[11] = target: HIV-1 Env of pseudovirus C4118.c09 (HIV-1)
[12] = target: HIV-1 Env of pseudovirus CAAN5342.A2 (HIV-1)
[13] = target: HIV-1 Env of pseudovirus CAP210.2.00.E8 (HIV-1)
[14] = target: HIV-1 Env of pseudovirus CNE19 (HIV-1)
[15] = target: HIV-1 Env of pseudovirus CNE21 (HIV-1)
[16] = target: HIV-1 Env of pseudovirus CNE30 (HIV-1)
[17] = target: HIV-1 Env of pseudovirus Ce0682_E4 (HIV-1)
[18] = target: HIV-1 Env of pseudovirus Ce1172_H1 (HIV-1)
[19] = target: HIV-1 Env of pseudovirus Ce1176_A3 (HIV-1)
[20] = target: HIV-1 Env of pseudovirus Ce703010054_2A2 (HIV-1)
[21] = target: HIV-1 Env of pseudovirus Du156.12 (HIV-1)
[22] = target: HIV-1 Env of pseudovirus HIV-16055-2.3 (HIV-1)
[23] = target: HIV-1 Env of pseudovirus HIV-16845-2.22 (HIV-1)
[24] = target: HIV-1 Env of pseudovirus P1981_C5_3 (HIV-1)
[25] = target: HIV-1 Env of pseudovirus PVO.4 (HIV-1)
[26] = target: HIV-1 Env of pseudovirus Q23.17 (HIV-1)
[27] = target: HIV-1 Env of pseudovirus Q769.d22 (HIV-1)
[28] = target: HIV-1 Env of pseudovirus SC05_8C11_2344 (HIV-1)
[29] = target: HIV-1 Env of pseudovirus SC422661.8 (HIV-1)
[30] = target: HIV-1 Env of pseudovirus T250-4 (HIV-1)
[31] = target: HIV-1 Env of pseudovirus T251-18 (HIV-1)
[32] = target: HIV-1 Env of pseudovirus THRO4156.18 (HIV-1)
[33] = target: HIV-1 Env of pseudovirus TRO.11 (HIV-1)
[34] = target: HIV-1 Env of pseudovirus WITO4160.33 (HIV-1)
[35] = target: HIV-1 Env of pseudovirus ZM247v1(Rev-) (HIV-1)

PGT128 (antibody)
neutralization IC50 [1]: 0.035 µg/mL
neutralization IC80 [1]: 0.312 µg/mL
neutralization IC50 [2]: 0.011 µg/mL
neutralization IC80 [2]: 0.034 µg/mL
neutralization IC50 [3]: 0.022 µg/mL
neutralization IC80 [3]: 0.152 µg/mL
neutralization IC50 [4]: 0.005 µg/mL
neutralization IC80 [4]: 0.014 µg/mL
IC50 (Titer in TZM.bl cells) [5]: 0.014 µg/mL
IC80 (Titer in TZM.bl cells) [5]: 0.033 µg/mL
IC50 (Titer in TZM.bl cells) [6]: 0.067 µg/mL
IC80 (Titer in TZM.bl cells) [6]: 0.499 µg/mL
IC50 (Titer in TZM.bl cells) [7]: > 50 µg/mL
IC80 (Titer in TZM.bl cells) [7]: > 50 µg/mL
IC50 (Titer in TZM.bl cells) [8]: 0.003 µg/mL
IC80 (Titer in TZM.bl cells) [8]: 0.019 µg/mL
neutralization IC50 [9]: 0.004 µg/mL
neutralization IC80 [9]: 0.016 µg/mL
neutralization IC50 [10]: > 50 µg/mL
neutralization IC80 [10]: > 50 µg/mL
IC50 (Titer in TZM.bl cells) [11]: > 50 µg/mL
IC80 (Titer in TZM.bl cells) [11]: > 50 µg/mL
neutralization IC50 [12]: 0.514 µg/mL
neutralization IC80 [12]: > 50 µg/mL
neutralization IC50 [13]: > 50 µg/mL
neutralization IC80 [13]: > 50 µg/mL
neutralization IC50 [14]: > 50 µg/mL
neutralization IC80 [14]: > 50 µg/mL
neutralization IC50 [15]: 0.01 µg/mL
neutralization IC80 [15]: 0.026 µg/mL
neutralization IC50 [16]: 2.06 µg/mL
neutralization IC80 [16]: 12.6 µg/mL
neutralization IC50 [17]: > 50 µg/mL
neutralization IC80 [17]: > 50 µg/mL
neutralization IC50 [18]: 0.013 µg/mL
neutralization IC80 [18]: 0.038 µg/mL
neutralization IC50 [19]: 0.009 µg/mL
neutralization IC80 [19]: 0.026 µg/mL
neutralization IC50 [20]: > 50 µg/mL
neutralization IC80 [20]: > 50 µg/mL
neutralization IC50 [21]: 0.017 µg/mL
neutralization IC80 [21]: 0.046 µg/mL
neutralization IC50 [22]: > 50 µg/mL
neutralization IC80 [22]: > 50 µg/mL
neutralization IC50 [23]: 0.181 µg/mL
neutralization IC80 [23]: 0.834 µg/mL
IC50 (Titer in TZM.bl cells) [24]: 0.019 µg/mL
IC80 (Titer in TZM.bl cells) [24]: 0.088 µg/mL
neutralization IC50 [25]: 0.011 µg/mL
neutralization IC80 [25]: 0.028 µg/mL
neutralization IC50 [26]: 0.009 µg/mL
neutralization IC80 [26]: 0.024 µg/mL
neutralization IC50 [27]: > 50 µg/mL
neutralization IC80 [27]: > 50 µg/mL
neutralization IC50 [28]: 0.017 µg/mL
neutralization IC80 [28]: 0.041 µg/mL
neutralization IC50 [29]: 1.08 µg/mL
neutralization IC80 [29]: 18.4 µg/mL
neutralization IC50 [30]: < 0.001 µg/mL
neutralization IC80 [30]: 0.007 µg/mL
IC50 (Titer in TZM.bl cells) [31]: > 50 µg/mL
IC80 (Titer in TZM.bl cells) [31]: > 50 µg/mL
neutralization IC50 [32]: > 50 µg/mL
neutralization IC80 [32]: > 50 µg/mL
neutralization IC50 [33]: 0.019 µg/mL
neutralization IC80 [33]: 0.045 µg/mL
neutralization IC50 [34]: > 50 µg/mL
neutralization IC80 [34]: > 50 µg/mL
neutralization IC50 [35]: 0.021 µg/mL
neutralization IC80 [35]: 0.081 µg/mL

PGT145 (antibody)
neutralization IC50 [1]: > 50 µg/mL
neutralization IC80 [1]: > 50 µg/mL
neutralization IC50 [2]: 0.001 µg/mL
neutralization IC80 [2]: 0.005 µg/mL
neutralization IC50 [3]: 0.028 µg/mL
neutralization IC80 [3]: 0.345 µg/mL
neutralization IC50 [4]: > 50 µg/mL
neutralization IC80 [4]: > 50 µg/mL
IC50 (Titer in TZM.bl cells) [5]: 0.043 µg/mL
IC80 (Titer in TZM.bl cells) [5]: 0.164 µg/mL
IC50 (Titer in TZM.bl cells) [6]: 0.219 µg/mL
IC80 (Titer in TZM.bl cells) [6]: 4.22 µg/mL
IC50 (Titer in TZM.bl cells) [7]: 0.241 µg/mL
IC80 (Titer in TZM.bl cells) [7]: 19.7 µg/mL
IC50 (Titer in TZM.bl cells) [8]: > 50 µg/mL
IC80 (Titer in TZM.bl cells) [8]: > 50 µg/mL
neutralization IC50 [9]: > 50 µg/mL
neutralization IC80 [9]: > 50 µg/mL
neutralization IC50 [10]: > 50 µg/mL
neutralization IC80 [10]: > 50 µg/mL
IC50 (Titer in TZM.bl cells) [11]: < 0.001 µg/mL
IC80 (Titer in TZM.bl cells) [11]: 0.004 µg/mL
neutralization IC50 [12]: 6.67 µg/mL
neutralization IC80 [12]: 25.5 µg/mL
neutralization IC50 [13]: 37.8 µg/mL
neutralization IC80 [13]: > 50 µg/mL
neutralization IC50 [14]: 0.103 µg/mL
neutralization IC80 [14]: 1.13 µg/mL
neutralization IC50 [15]: < 0.001 µg/mL
neutralization IC80 [15]: 0.009 µg/mL
neutralization IC50 [16]: > 50 µg/mL
neutralization IC80 [16]: > 50 µg/mL
neutralization IC50 [17]: 33.6 µg/mL
neutralization IC80 [17]: > 50 µg/mL
neutralization IC50 [18]: 0.26 µg/mL
neutralization IC80 [18]: 2.06 µg/mL
neutralization IC50 [19]: > 50 µg/mL
neutralization IC80 [19]: > 50 µg/mL
neutralization IC50 [20]: > 50 µg/mL
neutralization IC80 [20]: > 50 µg/mL
neutralization IC50 [21]: 0.001 µg/mL
neutralization IC80 [21]: 0.018 µg/mL
neutralization IC50 [22]: 0.003 µg/mL
neutralization IC80 [22]: 0.051 µg/mL
neutralization IC50 [23]: > 50 µg/mL
neutralization IC80 [23]: > 50 µg/mL
IC50 (Titer in TZM.bl cells) [24]: 5.41 µg/mL
IC80 (Titer in TZM.bl cells) [24]: > 50 µg/mL
neutralization IC50 [25]: 0.192 µg/mL
neutralization IC80 [25]: 0.87 µg/mL
neutralization IC50 [26]: 1.32 µg/mL
neutralization IC80 [26]: > 50 µg/mL
neutralization IC50 [27]: 0.26 µg/mL
neutralization IC80 [27]: 25.5 µg/mL
neutralization IC50 [28]: 0.093 µg/mL
neutralization IC80 [28]: 0.248 µg/mL
neutralization IC50 [29]: 0.024 µg/mL
neutralization IC80 [29]: 0.082 µg/mL
neutralization IC50 [30]: 0.002 µg/mL
neutralization IC80 [30]: 0.039 µg/mL
IC50 (Titer in TZM.bl cells) [31]: 0.351 µg/mL
IC80 (Titer in TZM.bl cells) [31]: 1.39 µg/mL
neutralization IC50 [32]: 0.01 µg/mL
neutralization IC80 [32]: 0.029 µg/mL
neutralization IC50 [33]: 0.04 µg/mL
neutralization IC80 [33]: 0.118 µg/mL
neutralization IC50 [34]: < 0.001 µg/mL
neutralization IC80 [34]: 0.001 µg/mL
neutralization IC50 [35]: 7.19 µg/mL
neutralization IC80 [35]: > 50 µg/mL
